Data set [1] concerns the molecule itself. Nature of the data set: SEC; Superdex-200 10/300 GL, 20 mM Tris-HCl pH 8.0, 0.1 mM TCEP, 400 mM NaCl, 0.5 mL/min; mass from a standard curve of standard proteins. Background: In gel filtration, larger molecules generally elute earlier.
Substrate in data set [2]: N[C@@H](CCO)C(=O)O
Nature of the data set: purified protein. The settings on record: oxidation, 2 mM NADP+, pH 9.0, 400 mM NaCl, 25°C, apparent. Format: biochemical, Bacillus subtilis.

Substrate in data set [3]: NC(=O)c1ccc[n+]([C@@H]2O[C@H](COP(=O)(O)OP(=O)(O)OC[C@H]3O[C@@H](n4cnc5c(N)ncnc54)[C@H](OP(=O)(O)O)[C@@H]3O)[C@@H](O)[C@H]2O)c1
Nature of the data set: purified protein. In kind it is biochemical, Bacillus subtilis. The conditions noted are these: oxidation, 100 mM L-homoserine, pH 9.0, 400 mM NaCl, 25°C, apparent, varied: cofactor.

B1: Homoserine dehydrogenase from Bacillus subtilis (enzyme, Bacillus subtilis strain 168, UniProt P19582 1-433, looked up)
chain: MKAIRVGLLGLGTVGSGVVKIIQDHQDKLMHQVGCPVTIKKVLVKDLEKKREVDLPKEVLTTEVYDVIDDPDVDVVIEVIGGVEQTKQYLVDALRSKKHVVTANKDLMAVYGSELLAEAKENGCDIYFEASVAGGIPILRTLEEGLSSDRITKMMGIVNGTTNFILTKMIKEKSPYEEVLKEAQDLGFAEADPTSDVEGLDAARKMAILARLGFSMNVDLEDVKVKGISQITDEDISFSKRLGYTMKLIGIAQRDGSKIEVSVQPTLLPDHHPLSAVHNEFNAVYVYGEAVGETMFYGPGAGSMPTATSVVSDLVAVMKNMRLGVTGNSFVGPQYEKNMKSPSDIYAQQFLRIHVKDEVGSFSKITSVFSERGVSFEKILQLPIKGHDELAEIVIVTHHTSEADFSDILQNLNDLEVVQEVKSTYRVEGNGWS
notes: Homoserine dehydrogenase (gene hom) of Bacillus subtilis strain 168, 433 amino acid residues; Calculated mass of the monomer printed as 48.3 kDa; Surmised: cloning through XhoI into pET26b adds Leu-Glu before the His6 tag; no removal of the tag is told; also called BsHSD; HSD; source: E. coli Rosetta2 (DE3), purified (HisTrapFF, HiPrep 26/10 Desalting, Superdex-200)
As for B1, the “stoichiometry N” value in data set [1] worked out at 4. Moreover, in data set [2], the Michaelis-Menten constant (Km) came out at 35.08 ± 2.91 mM, the maximal velocity (Vmax) is 2.72 µmol/min/mg, the kcat is 1.07 ± 0.02 s⁻¹ and the kcat/Km stood at 30 ± 10 M⁻¹ s⁻¹. Also, in data set [3], the Km was found to be 0.39 ± 0.05 mM, the maximal velocity (Vmax) is 2.79 µmol/min/mg, the kcat came to 1.1 ± 0.04 s⁻¹ and the kcat/Km was found to be 2860 ± 910 M⁻¹ s⁻¹.

For orientation: stoichiometry N means the number of molecules, sites or subunits per partner or assembly. One may read the Km as the substrate concentration at which the rate is half of its maximum. In general, Vmax refers to the rate approached at saturating substrate. In general, kcat refers to the maximal rate divided by the concentration of active sites. As usually defined, the kcat/Km is the turnover number divided by the Michaelis constant.
